The target in data set [1] is endothelial cell protein C receptor (EPCR) (human) (UniProt Q9UNN8). Briefly: cell-based or functional assay.
In data set [2] the target is PAR1^WT/β-11 (PAR1 with the GFP 11th β-strand fused to its C-terminus) (UniProt P25116). Briefly: cell-based or functional assay.
The target in data set [3] is endothelial cell protein C receptor (EPCR) (human) (UniProt Q9UNN8). Put plainly: binding to EPCR; reference is the natural ligands of EPCR.
Data set [4] shares this target. Briefly: binding to EPCR on endothelial cells; reference is wild type APC.
Data set [5] has the same target. Put plainly: binding to EPCR on endothelial cells; reference is wild type.
For data set [6] the target is unchanged. Briefly: flow cytometry, fluorescently labelled protease on endothelial cells.
Data set [7] shares this target. Put plainly: flow cytometry, labelled active-site blocked protease on endothelial cells.
The target of data set [8] is AP-PAR1 (PAR1 with an N-terminal alkaline phosphatase tag) (UniProt P25116).
The target of data set [9] is T1, AP-PAR1 (PAR1 with an N-terminal alkaline phosphatase tag), P25116.
T1 chain: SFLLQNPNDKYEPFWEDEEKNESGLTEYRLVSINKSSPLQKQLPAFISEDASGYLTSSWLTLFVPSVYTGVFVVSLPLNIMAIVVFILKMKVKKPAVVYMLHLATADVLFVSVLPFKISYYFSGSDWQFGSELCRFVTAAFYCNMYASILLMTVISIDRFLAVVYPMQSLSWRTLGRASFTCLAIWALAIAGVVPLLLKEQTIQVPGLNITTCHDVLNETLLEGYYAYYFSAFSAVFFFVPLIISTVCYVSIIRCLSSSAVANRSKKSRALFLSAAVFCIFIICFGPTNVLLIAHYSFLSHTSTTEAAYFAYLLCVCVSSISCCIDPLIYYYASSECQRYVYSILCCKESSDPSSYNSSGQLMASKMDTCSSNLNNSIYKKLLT

This note sets out measurements from patent US20250066436A1.

Chain of UniProt Q9UNN8 (Q9UNN8 18-238): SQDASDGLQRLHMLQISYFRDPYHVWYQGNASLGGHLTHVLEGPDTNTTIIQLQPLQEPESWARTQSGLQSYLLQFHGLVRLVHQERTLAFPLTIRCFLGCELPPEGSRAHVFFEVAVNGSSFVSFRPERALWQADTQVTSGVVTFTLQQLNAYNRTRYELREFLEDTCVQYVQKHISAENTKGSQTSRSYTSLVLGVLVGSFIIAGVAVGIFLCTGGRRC

In turn, “APC^CIDRα1.4 (truncated human activated protein C fused to the PfEMP1 CIDRα1.4 HB3var03 domain), proteolytically active (enzyme)” came in with a β-arrestin 2 recruitment to activated PAR1 in HEK 293T β-arrestin 2 reporter cells in [1] of 3 fold. The β-arrestin 2 recruitment to PAR1 (GFP formation by flow cytometry) in [2] was > 2 fold. The fold higher affinity than its natural ligands in data set [3] is < 100 fold. For the same molecule, the fold enhanced affinity compared to wild type APC in data set [4] is < 100 fold. In addition, the fold increase in affinity compared to wild type in data set [5] was > 100 fold.
“P-APC^CIDR (APC^CIDRα1.4 active-site blocked with biotinylated PPACK) (enzyme)” had a lowest concentration tested at which bound protease was present in data set [6] of 0.1 nM. For the same molecule, in data set [7], the concentration at which cell binding was still clearly visible was < 0.3 nM.
Regarding “wild type activated protein C (APC), proteolytically active”, in [8], the “PAR1 proteolysis (release of alkaline phosphatase tag into the supernatant)” value is “APC^CIDR cleaves PAR1 with comparable activity as APC”.

B1: APC^CIDRα1.4 (truncated human activated protein C fused to the PfEMP1 CIDRα1.4 HB3var03 domain), proteolytically active (protein)
chain: MRLAVGALLVCAVLGLCLPDCGVECKNETCTPKTVIYPDCGKNEKYEPPGDAKNTEINVINSGDKEGYIFEKLSEFCTNENNENGKNYEQWKCYYDNKKNNNKCKMEINIANSKLKNKITSFDEFFDFWVRKLLIDTIKWETELTYCINNTDVTDCNKCNKNCVCFDKWVKQKEDEWTNIMKLFTNKHDIPKKYYLNINDLFDSFFFQVIYKFNEGEAKWNELKENLKKQIASSKANNGTKDSEAAIKVLFNHIKEIATICKDNNTNEGCGDQCLVLPLEHPCASLCCGHGTCIDGIGSFSCDCRSGWEGRFCQREVSFLNCSLDNGGCTHYCLEEVGWRRCSCAPGYKLGDDLLQCHPAVKFPCGRPWKRMEKKRSHLKRDTEDQEDQVDPRLIDGKMTRRGDSPWQVVLLDSKKKLACGAVLIHPSWVLTAAHCMDESKKLLVRLGEYDLRRWEKWELDLDIKEVFVHPNYSKSTTDNDIALLHLAQPATLSQTIVPICLPDSGLAERELNQAGQETLVTGWGYHSSREKEAKRNRTFVLNFIKIPVVPHNECSEVMSNMVSENMLCAGILGDRQDACEGDSGGPMVASFHGTWFLVGLVSWGEGCGLLHNYGVYTKVSRYLDWIHGHIRDKEAPQKSWAP
Take B1: in data set [9], the “PAR1 proteolysis (release of alkaline phosphatase tag into the supernatant)” value is reported as “APC^CIDR cleaves PAR1 with comparable activity as APC”.
